Measurements published in article PMC7533888.

Columns and labels:
AtARF5-DBD [1] = molecular target: T1, AtARF5-DBD (Arabidopsis thaliana, UniProt P93024 1-390); experiment: smFRET titration
T1 sequence: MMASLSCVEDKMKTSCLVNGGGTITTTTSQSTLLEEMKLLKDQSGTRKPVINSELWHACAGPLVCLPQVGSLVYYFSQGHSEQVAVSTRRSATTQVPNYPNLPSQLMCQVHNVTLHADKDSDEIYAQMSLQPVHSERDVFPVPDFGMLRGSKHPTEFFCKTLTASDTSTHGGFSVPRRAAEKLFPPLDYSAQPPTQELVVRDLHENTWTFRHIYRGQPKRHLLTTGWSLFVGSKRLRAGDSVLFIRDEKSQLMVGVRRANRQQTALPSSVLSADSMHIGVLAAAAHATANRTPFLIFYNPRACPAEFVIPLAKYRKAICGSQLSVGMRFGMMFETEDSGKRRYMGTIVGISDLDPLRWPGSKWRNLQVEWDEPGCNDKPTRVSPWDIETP

AtARF1-DBD = molecular target: T2, AtARF1-DBD (Arabidopsis thaliana, UniProt Q8L7G0 1-355); experiment: smFRET titration
T2 sequence: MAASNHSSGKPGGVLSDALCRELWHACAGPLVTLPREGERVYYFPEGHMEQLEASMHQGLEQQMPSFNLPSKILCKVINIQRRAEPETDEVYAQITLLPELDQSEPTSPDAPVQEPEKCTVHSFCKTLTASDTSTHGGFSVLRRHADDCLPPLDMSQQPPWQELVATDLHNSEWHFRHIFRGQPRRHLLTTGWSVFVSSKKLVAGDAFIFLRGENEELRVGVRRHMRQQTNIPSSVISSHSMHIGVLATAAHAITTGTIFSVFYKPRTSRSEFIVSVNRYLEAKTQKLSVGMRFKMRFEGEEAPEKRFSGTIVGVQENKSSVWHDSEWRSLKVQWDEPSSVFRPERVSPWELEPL

AtARF5-DBD [2] = molecular target: T1, AtARF5-DBD; experiment: size-exclusion chromatography

Binder | Kd (AtARF5-DBD [1]) [nM] | Kd (AtARF1-DBD) [nM] | binding result (AtARF5-DBD [2])
IR8 (dsDNA) DNA 1: ACTCTTTTTTGTCGGGGAAAAGGCCGACAATCCGTGTG DNA 2: CACACGGATTGTCGGCCTTTTCCCCGACAAAAAAGAGT | 9 | 140 | 
DR5 (dsDNA) DNA 1: ACTGCCTTTTGTCGGCCTTTTGTCGGATCCGTGTG DNA 2: CACACGGATCCGACAAAAGGCCGACAAAAGGCAGT | 60 | 570 | 
pTMO5Δ1-IR7 (dsDNA) DNA 1: TGGTCTCTGGTCGGTTTTTTA DNA 2: TAAAAAACCGACCAGAGACCA |  |  | no binding
pTMO5Δ2-IR7 (dsDNA) DNA 1: TTTTTTTTGGTCGGTTTTTTA DNA 2: TAAAAAACCGACCAAAAAAAA |  |  | no binding
